Assay results reported in publication PMC6379675, “Structural insights into chromosome attachment to the nuclear envelope by an inner nuclear membrane protein Bqt4 in fission yeast” (Nucleic Acids Research, 2018).

B1: Lem2_(261–279) [S. pombe] / Bqt4_(2–140), N-terminal domain of Bqt4 [S. pombe] (parent complex)
chain 1: SAEEDDELFQNYVLQQTRK
chain 2: TENEKSRSLPAERNPLYKDDTLDHTPLIPKCRAQVIEFPDGPATFVRLKCTNPESKVPHFLMRMAKDSSISATSMFRSAFPKATQEEEDLEMRWIRDNLNPIEDKRVAGLWVPPADALALAKDYSMTPFINALLEASST
B2: Sad1 (residues 88–101) [S. pombe] / Bqt4_(2–140), N-terminal domain of Bqt4 [S. pombe] (parent complex)
chain 1: SDNEEFENVVKNGH
chain 2: B1 chain 2
B3: Rap1_(479–527) [S. pombe] / Bqt4_(2–140), N-terminal domain of Bqt4 [S. pombe] (parent complex)
chain 1: EIPLLSDYSDSENISEKSSDDEEAFEKQVTSSYSSPIKVKSQGKSSKGS
chain 2: B1 chain 2

Variants of: B1
Test: ITC; parent: 530 nM

| Variant | Kd [µM] |
| --- | --- |
| chain 2 R47E | 3.2 |
| chain 2 F60A | 46 |

Variants of: B2
Test: ITC; parent: 3.7e+03 nM

| Variant | Kd [µM] |
| --- | --- |
| chain 2 R47E | 262 |

Variants of: B3
Test: ITC; parent: 1.14e+04 nM

| Variant | Kd [µM] |
| --- | --- |
| chain 2 D89R | 14.4 |
| chain 2 R32A | 12.3 |

Variants of: B3
Test: ITC; parent: 1.14e+04 nM
Remark: another data set of the same source

| Variant | Kd [µM] |
| --- | --- |
| chain 1 S19A | 9.5 |
| chain 1 S18A, chain 1 S19A | 8 |
| chain 1 S18E | 2.4 |
| chain 1 S35E | 57.8 |
| chain 1 S19E | 2.6 |
| chain 1 S34A, chain 1 S35A | 7.3 |
| chain 1 S34E | 27.2 |
| chain 1 S35A | 7.9 |
| chain 1 S34E, chain 1 S35E | 115 |
| chain 1 S18E, chain 1 S19E | 0.9 |
| chain 1 S34A | 7.1 |
| chain 1 S18A | 10.6 |

Variants of: B3
Test: ITC; parent: 1.14e+04 nM
Remark: another data set of the same source

| Variant | Kd [µM] |
| --- | --- |
| chain 1 F25A | 106 |
| chain 1 V29A | 138 |
| chain 1 D21A, chain 1 E22A | 862 |

Variants of: B3
Test: ITC; parent: 1.14e+04 nM
Remark: another data set of the same source

| Variant | Kd [µM] |
| --- | --- |
| chain 2 F60A | 909 |
